Assay results taken from PMC8545432.

Key:
[1] = target: AcrIIA22 2-amino acid C-terminal truncation mutant (thrombin-cleaved) (unnamed clostridial genus CAG-217 (human gut metagenome)); test: SEC; thrombin-cleaved AcrIIA22 variants; Superdex75 16/60; 25 mM Tris pH 7.5, 200 mM NaCl; size against protein standards
[2] = target: AcrIIA22 (thrombin-cleaved, from the N-terminal His6 construct) (unnamed clostridial genus CAG-217 (human gut metagenome)); test: as above

stoichiometry N [1] | stoichiometry N [2] | Substance
2 | – | AcrIIA22 2-amino acid C-terminal truncation mutant (thrombin-cleaved) (domain or fragment)
– | 4 | AcrIIA22 (thrombin-cleaved, from the N-terminal His6 construct) (natural protein)
